Reference: patent US20240207432A1 (BIOSION, published 2024)
Where two headings read alike, the source gives them in different places.

What was measured:
[1] = target: T1, human TROP2-his protein (human, UniProt P09758 27-274); test: competitive ELISA: BM1 coated at 1 ug/mL, antibody premixed with biotin human TROP2-his; blocked: binding of TROP2-his to coated BM1
T1 construct: Biotin-labelled in the ELISAs, unlabelled analyte in Biacore; also called biotin-labeled human TROP2-his protein; biotin human Trop2-his
T1 sequence: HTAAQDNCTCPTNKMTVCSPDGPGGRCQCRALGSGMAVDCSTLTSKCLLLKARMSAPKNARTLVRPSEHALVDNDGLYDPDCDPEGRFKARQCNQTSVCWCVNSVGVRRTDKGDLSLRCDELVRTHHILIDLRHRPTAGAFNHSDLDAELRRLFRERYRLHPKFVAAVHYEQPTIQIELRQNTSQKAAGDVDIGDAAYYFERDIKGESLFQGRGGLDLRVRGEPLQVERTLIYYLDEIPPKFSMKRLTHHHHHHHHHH
Protocol: The mouse anti-TROP2 antibodies were tested for epitope binding in a competitive ELISA assay. […] ELISA plates were washed once with wash buffer (PBS+0.05% v/v Tween-20, PBST) and then blocked with 200 μl blocking buffer (5% w/v non-fatty milk in PBST) for 2 hours at 37° C. While blocking, the anti-TROP2 antibodies or controls were diluted with biotin labeled human TROP2-his protein (SEQ ID NO: 67, 34 ng/mL in 2.5% wA non-fatty milk in PBST), starting at 80 nM with a 5-fold serial dilution, and incubated at room temperature for 40 minutes. After plate washing for 4 times, the antibody/TROP2-his protein mixtures were added to the antibody coated plates, 100 μl per well. After incubation at 37° C. for 40 minutes, plates were washed 4 times again using wash buffer. Then the plates were added and incubated with 100 μl Peroxidase Streptavidin (1:10000 dilution in PBST buffer. Jackson Immunoresearch, Cat #016-030-084) for 40 minutes at 37° C. Plates were washed again using wash buffer. Finally, TMB was added and the reaction was stopped using 1M H₂SO₄. The absorbance of each well was read on a microplate reader using dual wavelength mode with 450 nm for TMB and 630 nm as the reference wavelength, and the OD (450-630) values were plotted against antibody concentration. Data was analyzed using Graphpad Prism software and IC₅₀ values were reported.

[2] = target: T2, full length human TROP2 on 293F-TROP2 cells (human, UniProt P09758 27-323); test: FACS on 293F-TROP2 cells, MFI
T2 construct: also called 293F-TROP2 cells (clone ID #3A8); cell surface TROP2
T2 sequence: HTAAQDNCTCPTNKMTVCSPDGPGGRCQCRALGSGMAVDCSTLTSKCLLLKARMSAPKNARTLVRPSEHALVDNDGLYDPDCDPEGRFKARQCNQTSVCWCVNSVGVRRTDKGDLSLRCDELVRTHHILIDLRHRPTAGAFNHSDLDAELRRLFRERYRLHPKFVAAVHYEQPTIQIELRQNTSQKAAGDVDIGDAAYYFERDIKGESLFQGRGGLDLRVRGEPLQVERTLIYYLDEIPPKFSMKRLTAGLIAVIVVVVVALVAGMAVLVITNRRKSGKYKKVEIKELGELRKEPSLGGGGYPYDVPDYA
Protocol: The binding activity of the mouse anti-TROP2 antibodies to cell surface TROP2 proteins was tested by flow cytometry (FACS), using Biosion in-house prepared 293F-TROP2 cells (clone ID #3A8) stably expressing full length human TROP2s (uniprot #P09758, SEQ ID NO.: 71) on cell membrane. The 293F-TROP2 cells were prepared by transfecting 293F cells (Thermofisher Inc., Cat #11625019) with a pCMV-T-P plasmid inserted with human TROP2 coding sequence between EcoRI and XbaI sites, following the instruction of lipofectamine 3000 transfection reagent (Thermo Fisher).
(§1) The 293F-TROP2 cells were harvested from cell culture flasks, washed twice and re-suspended in phosphate buffered saline (PBS) containing 2% v/v Fetal Bovine Serum (FACS buffer). […] Following an incubation of 40 minutes at 4° C. in dark, cells were washed twice and re-suspended in FACS buffer. Fluorescence was measured using a Becton Dickinson FACS Canto II-HTS equipment, and the MFI (mean fluorescence intensity) was plotted against antibody concentration. Data was analyzed using Graphpad Prism software and EC₅₀ values were reported.

[3] = target: T1, human TROP2-his protein; test: capture ELISA, antibody captured on anti-mouse IgG Fc coat, biotin human TROP2-his in solution, OD(450-630)
Protocol: (§2) Plates were washed once with wash buffer (PBS+0.05% v/v Tween-20, PBST) and then blocked with 200 μl/well blocking buffer (5% w/v non-fatty milk in PBST) for 2 hours at 37° C. […] Plates containing captured anti-TROP2 antibodies were incubated with biotin-labeled human TROP2-his protein (prepared in house, SEQ ID NO: 67, 56.7 ng/mL in 2.5% w/v non-fatty milk in PBST, 100 μl/well) for 40 minutes at 37° C., washed 4 times, and incubated with streptavidin conjugated HRP (1:10000 dilution in PBST, Jackson Immuno Research, Cat #016-030-084, 100 μl/well) for 40 minutes at 37° C. After a final wash, plates were incubated with 100 μl/well ELISA substrate TMB (Innoreagents, Cat #TMB-S-002) at room temperature. The reaction was stopped in 3-10 minutes at room temperature with 50 μl/well 1M H₂SO₄, and the absorbance of each well was read on a microplate reader using dual wavelength mode with 450 nm for TMB and 630 nm as the reference wavelength. The OD (450-630) values were plotted against antibody concentration. Data was analyzed using Graphpad Prism software and EC₅₀ values were reported.

[4] = target: T3, cynomolgus TROP2-his protein (cynomolgus monkey, UniProt P09758 27-272 (human entry), limits assumed); test: SPR Biacore T200, mAb captured on anti-mouse IgG CM5 chip, TROP2-his analyte
T3 construct: no cleavage site is stated; also called Cynomolgus monkey TROP2-his protein; monkey TROP2
T3 chain: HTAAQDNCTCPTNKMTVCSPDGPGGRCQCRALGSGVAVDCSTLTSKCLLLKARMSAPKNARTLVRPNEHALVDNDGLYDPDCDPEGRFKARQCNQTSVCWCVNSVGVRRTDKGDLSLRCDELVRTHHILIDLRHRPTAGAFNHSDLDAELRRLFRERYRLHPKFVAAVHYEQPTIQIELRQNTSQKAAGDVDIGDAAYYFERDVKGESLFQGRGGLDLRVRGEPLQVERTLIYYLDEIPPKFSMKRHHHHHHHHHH
Protocol: (§3) Un-reacted moieties on the chip (biosensor) surface were blocked with ethanolamine. […] The antigen-antibody association kinetics was followed for 2 minutes and the dissociation kinetics was followed for 10 minutes. The association and dissociation curves were fit to a 1:1 Langmuir binding model using BIAcore evaluation software.

[5] = target: T1, human TROP2-his protein; test: as above
Protocol: as §3

[6] = target: T3, cynomolgus TROP2-his protein; test: indirect ELISA, cynomolgus TROP2-his coated at 2 ug/mL, OD(450-630)
Protocol: (§4) The anti-TROP2 antibodies of the disclosure were tested for their cross-reaction with cynomolgus TROP2 proteins. Briefly, 96-well micro plates were coated with 100 μl 2 μg/ml cynomolgus TROP2-his proteins (prepared in-house with SEQ ID NO: 70) in carbonate/bicarbonate buffer (pH 9.6) overnight at 4° C. ELISA plates were washed once with wash buffer (PBS+0.05% v/v Tween-20, PBST) and then blocked with 200 μl/well blocking buffer (5% w/v non-fatty milk in PBST) for 2 hours at 37° C. […] After a final wash, plates were incubated with 100 μl/well TMB (Innoreagents) at room temperature. The reaction was stopped 3-10 minutes later at room temperature with 50 μl/well 1M H₂SO₄, and the absorbance of each well was read on a microplate reader using dual wavelength mode with 450 nm for TMB and 630 nm as the reference wavelength. The OD (450-630) values were plotted against antibody concentration. Data was analyzed using Graphpad Prism software and EC₅₀ values were reported.

[7] = target: T3, cynomolgus TROP2-his protein; test: as above
Protocol: as §4

[8] = target: T1, human TROP2-his protein; test: capture ELISA, antibody captured on anti-human IgG Fc coat, biotin human TROP2-his in solution, OD(450-630)
Protocol: as §2
For the capture ELISA, AffiniPure Goat Anti-Human IgG, Fcγ fragment specific (Jackson Immuno Research, Cat #109-005-098) was used instead of AffiniPure Goat Anti-Mouse IgG, Fcγ fragment specific, 100 μl/well.

[9] = target: T2, full length human TROP2 on 293F-TROP2 …; test: FACS on 293F-TROP2 cells, MFI; remark: listed apart in the source
[10] = target: T3, cynomolgus TROP2-his protein; test: SPR Biacore, antibody captured on anti-human IgG CM5 chip, TROP2-his analyte
Protocol: as §3

[11] = target: T1, human TROP2-his protein; test: as above
Protocol: as §3

[12] = target: T1, human TROP2-his protein; test: competitive ELISA: BM1 coated, antibody premixed with biotin human TROP2-his; blocked: binding of TROP2-his to coated BM1; partial only: OD falls from about 1.9 to a plateau of about 1.3
[13] = target: T3, cynomolgus TROP2-his protein; test: indirect ELISA, cynomolgus TROP2-his coated, OD(450-630)
[14] = target: T1, human TROP2-his protein; test: capture ELISA, antibody captured on anti-human IgG Fc coat, biotin human TROP2-his in solution, OD(450-630); remark: listed apart in the source
Protocol: as §2
For the Capture ELISA, AffiniPure F(ab′)₂ Fragment Goat Anti-Human IgG, Fcγ fragment specific (Jackson Immunoresearch, Cat #109-006-008) was used instead of AffiniPure Goat Anti-Mouse IgG, Fcγ fragment specific, 100 μl/well.

[15] = target: T2, full length human TROP2 on 293F-TROP2 …; test: FACS on 293F-TROP2 cells, MFI; remark: listed apart in the source
Protocol: as §1

[16] = target: T3, cynomolgus TROP2-his protein; test: indirect ELISA, cynomolgus TROP2-his coated, OD(450-630)
[17] = target: T3, cynomolgus TROP2-his protein; test: SPR Biacore, antibody captured on anti-human IgG CM5 chip, TROP2-his analyte
Protocol: as §3

[18] = target: T1, human TROP2-his protein; test: as above; remark: listed apart in the source
Protocol: as §3

B1: mouse antibody A1B12D2B4E7B3 (antibody, V domains shown)
VH: EVQLQQSGPELVKPGASVKMSCKASGFTFTDYYMNWVKQSHGKSLEWIGYIYPNHGGTGYNQKFKDKATLTVDKSSSTAYMELRSLTSDDSAVYYCARENYGYAMDYWGQGTSVTVSS
VL: DVVMTQTPLSLPVSLGDQASISCRSSQSLVHGDGNTYLHWFLQKPGQSPKLLIYTVSNRFSGVPDRFSGSGSGTDFTLKINRVEAEDLGIYFCSQTTHVPTFGGGTKLEIK
notes: Mouse monoclonal IgG purified from hybridoma supernatant
**Q.** What does the source list for B1?
**A.** IC50 [1]: 1.55 nM; EC50 [2]: 0.896 nM; EC50 [3]: 0.248 nM; Kd [4]: 1.12 nM; koff [4]: 0.000124 s⁻¹; kon [4]: 111000 M⁻¹ s⁻¹; Kd [5]: 1.06 nM; koff [5]: 8.92e-05 s⁻¹; kon [5]: 84000 M⁻¹ s⁻¹; EC50 [6]: 0.578 nM

B2: mouse antibody B1G1F5A3 (antibody, V domains shown)
VH: EVQLQQSGPELVKPGTSVKMSCKASGYSFADYSMNWVRQSHGNSLEWIGYIYPNNGASGFNQKFKGKATLTVDKSSSTAYMELHSLTSEDSAVYYCAREQDNSGYCFDYWGQGTSLTVSS
VL: DVVMTQTPLSLAVRLGDQASISCRSSLNLVHSNGNTFLHWYLQRPGQSPKLLIYKVSNRFSGVSDRFSGSGSGTDFTLKISRVEAEDLGVYFCSQTTHVPTFGGGTKLEIK
notes: as for B1
**Q.** B2 was tested. Which IC50 [1] did it give?
**A.** 0.516 nM

**Q.** What about the EC50 [3] of the same binder?
**A.** 0.335 nM

**Q.** And the Kd [4]?
**A.** 0.568 nM

**Q.** What about the koff [4] of the same binder?
**A.** 8.86e-05 s⁻¹

**Q.** And the kon [4]?
**A.** 156000 M⁻¹ s⁻¹

**Q.** And the Kd [5]?
**A.** 0.416 nM

**Q.** And the koff [5]?
**A.** 5.58e-05 s⁻¹

**Q.** What about the kon [5] of the same binder?
**A.** 134000 M⁻¹ s⁻¹

**Q.** What about the EC50 [7] of the same binder?
**A.** 0.863 nM

B3: chimeric A1E4F7D4 (antibody, human IgG1, kappa, V domains shown)
VH: QVQLQQSGAELAKPGTSVKMSCEASGYSFTTHWIHWMKQRPGQGLEWIGTIFPSNAYAVYNQKFRDRAIMTADRSSTTAYIQLTGLTSEDSAVYYCARASYFDYWGQGTTLTVSS
VL: DILLTQSPATLSVSPGERVTFSCRASQNIGTSIHWFQQRTTGSPRLLIKYASESISGIPSRFSGSGSGTDFTLHINSVESEDIAHYYCQHSHSWPFTFGSGTKLEIQR
notes: also called chimeric antibody A1E4F7D4
**Q.** Which results are given for B3?
**A.** EC50 [8]: 0.0979 nM; EC50 [9]: 0.36 nM; Kd [10]: 0.247 nM; koff [10]: 0.000171 s⁻¹; kon [10]: 692000 M⁻¹ s⁻¹; Kd [11]: 0.0326 nM; koff [11]: 3.13e-05 s⁻¹; kon [11]: 961000 M⁻¹ s⁻¹; IC50 [12]: 0.447 nM; EC50 [13]: 0.967 nM; EC50 [14]: 0.0732 nM; EC50 [15]: 0.575 nM; EC50 [16]: 0.237 nM; Kd [17]: 0.134 nM; koff [17]: 0.000163 s⁻¹; kon [17]: 1.22e+06 M⁻¹ s⁻¹; Kd [18]: 0.185 nM; koff [18]: 0.000194 s⁻¹; kon [18]: 1.05e+06 M⁻¹ s⁻¹
